# Patent US20230357343A1
# Where two headings read alike, the source gives them in different places.
# What was measured:
# [1] = target: keyhole limpet hemocyanin; assay: polyreactivity ELISA
# [2] = target: keyhole limpet hemocyanin; assay: polyreactivity ELISA; remark: listed apart in the source
substance,measurement,setting,value
Bococizumab (antibody),Binding to KLH (normalised A450),[1],47.1
same,Binding to KLH (normalised A450),[2],24.4
